Source: patent US20060246541A1

Target: GPIIb/IIIa (integrin αIIbβ3)
Assay: cell-based or functional assay

Substance: native contortrostatin (from UniProt Q805F6 419-482) (ligand)
- IC50, inhibition of ADP-induced platelet aggregation: 0.06 µM
